Experimental data reported in patent US20220235136A1, “METHODS AND COMPOSITIONS FOR TREATING A DISEASE OR DISORDER” (YALE UNIVERSITY, priority 2019, published 2022).

Columns and labels:
[1] = target: CD93 on cells in Example 20 (transfected HEK293T cells, FIG. 28A; CHO cells stably expressing CD93, FIG. 28B); species not stated; assay: flow cytometry, HEK293T cells transfected with CD93 stained with IGFBP7-Ig; dashed = transfectant, solid = WT 293T
[2] = target: CD93 on cells in Example 20 (transfected HEK293T cells, FIG. 28A; CHO cells stably expressing CD93, FIG. 28B); species not stated; assay: flow cytometry, CHO cells stably expressing CD93 stained with IGFBP7-Ig (dashed) or Control (solid), no competitor
CD141 [3] = assay: flow cytometry, HEK293T cells transfected with CD141 stained with IGFBP7-Ig; dashed = transfectant, solid = WT 293T; histograms overlie
Chain of CD141 (P07204 19-575): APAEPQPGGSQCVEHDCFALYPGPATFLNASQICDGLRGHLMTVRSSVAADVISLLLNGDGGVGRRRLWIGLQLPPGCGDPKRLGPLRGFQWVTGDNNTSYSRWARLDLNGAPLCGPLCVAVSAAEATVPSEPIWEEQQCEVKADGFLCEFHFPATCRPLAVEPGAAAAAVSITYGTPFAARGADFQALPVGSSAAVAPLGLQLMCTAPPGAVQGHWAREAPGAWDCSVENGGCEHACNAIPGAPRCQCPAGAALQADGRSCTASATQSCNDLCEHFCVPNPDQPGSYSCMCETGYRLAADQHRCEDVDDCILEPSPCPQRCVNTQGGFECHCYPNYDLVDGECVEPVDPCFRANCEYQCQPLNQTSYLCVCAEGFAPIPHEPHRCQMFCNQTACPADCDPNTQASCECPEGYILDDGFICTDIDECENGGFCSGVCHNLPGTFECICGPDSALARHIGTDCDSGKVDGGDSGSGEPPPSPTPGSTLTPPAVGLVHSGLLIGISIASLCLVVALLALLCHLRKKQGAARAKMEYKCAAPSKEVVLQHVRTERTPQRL

[4] = target: CD248 on transfected HEK293T cells; assay: flow cytometry, HEK293T cells transfected with CD248 stained with IGFBP7-Ig; dashed = transfectant, solid = WT 293T; histograms overlie; the text tells this pair as not binding
Chain of CD248 on transfected HEK293T cells (Q9HCU0 18-757): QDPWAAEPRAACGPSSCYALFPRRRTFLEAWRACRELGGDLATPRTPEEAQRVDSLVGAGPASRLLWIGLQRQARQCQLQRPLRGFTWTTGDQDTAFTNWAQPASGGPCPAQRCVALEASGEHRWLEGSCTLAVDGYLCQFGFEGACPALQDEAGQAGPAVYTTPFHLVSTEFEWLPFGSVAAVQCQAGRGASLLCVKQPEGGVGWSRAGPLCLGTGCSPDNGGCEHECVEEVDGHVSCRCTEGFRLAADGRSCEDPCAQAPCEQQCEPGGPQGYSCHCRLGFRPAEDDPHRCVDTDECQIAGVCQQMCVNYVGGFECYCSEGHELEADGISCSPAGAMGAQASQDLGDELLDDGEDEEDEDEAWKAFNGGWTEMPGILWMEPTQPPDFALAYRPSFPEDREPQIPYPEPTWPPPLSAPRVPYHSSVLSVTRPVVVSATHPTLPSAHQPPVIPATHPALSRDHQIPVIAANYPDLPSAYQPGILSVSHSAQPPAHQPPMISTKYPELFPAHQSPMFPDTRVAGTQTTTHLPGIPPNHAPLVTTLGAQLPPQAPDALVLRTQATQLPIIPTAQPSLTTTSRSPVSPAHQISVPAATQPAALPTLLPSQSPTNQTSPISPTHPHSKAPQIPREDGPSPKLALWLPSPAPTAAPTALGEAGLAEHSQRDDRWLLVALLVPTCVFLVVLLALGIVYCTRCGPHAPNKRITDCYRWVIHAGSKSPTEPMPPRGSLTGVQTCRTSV

[5] = target: CLEC14A on transfected HEK293T cells; assay: flow cytometry, HEK293T cells transfected with CLEC14A stained with IGFBP7-Ig; dashed = transfectant, solid = WT 293T; histograms nearly overlie; the text tells this pair as not binding
Chain of CLEC14A on transfected HEK293T cells (Q86T13 22-490): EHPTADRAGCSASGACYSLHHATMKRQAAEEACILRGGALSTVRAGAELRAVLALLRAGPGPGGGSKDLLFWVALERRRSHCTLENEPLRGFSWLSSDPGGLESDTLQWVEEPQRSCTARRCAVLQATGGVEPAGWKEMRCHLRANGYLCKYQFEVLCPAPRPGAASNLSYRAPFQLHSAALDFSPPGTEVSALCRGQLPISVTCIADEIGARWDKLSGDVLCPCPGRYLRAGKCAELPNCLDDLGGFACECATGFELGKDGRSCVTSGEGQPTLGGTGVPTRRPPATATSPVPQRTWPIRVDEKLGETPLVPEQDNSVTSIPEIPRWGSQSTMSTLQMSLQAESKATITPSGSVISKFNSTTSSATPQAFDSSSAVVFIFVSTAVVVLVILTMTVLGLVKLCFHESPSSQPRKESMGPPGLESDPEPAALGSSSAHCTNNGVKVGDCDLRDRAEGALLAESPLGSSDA

[6] = target: CD93 on cells in Example 20 (transfected HEK293T cells, FIG. 28A; CHO cells stably expressing CD93, FIG. 28B); species not stated; assay: flow cytometry, CHO cells stably expressing CD93 stained with IGFBP7-Ig (dashed) or Control (solid) in the presence of MMRN2 (panel '+MMRN2', form of the MMRN2 not stated); bar chart of MFI beside it marked ns against 'None'
[7] = target: CD93 on cells in Example 20 (transfected HEK293T cells, FIG. 28A; CHO cells stably expressing CD93, FIG. 28B); species not stated; assay: flow cytometry, HEK293T cells transfected with CD93 stained with MMRN2-Ig; dashed = transfectant, solid = WT 293T
[8] = target: CD93 on cells in Example 20 (transfected HEK293T cells, FIG. 28A; CHO cells stably expressing CD93, FIG. 28B); species not stated; assay: flow cytometry, CHO cells stably expressing CD93 stained with MMRN2-Ig (dashed) or Control (solid), no competitor
[9] = target: CD248 on transfected HEK293T cells; assay: flow cytometry, HEK293T cells transfected with CD248 stained with MMRN2-Ig; dashed = transfectant, solid = WT 293T
[10] = target: CLEC14A on transfected HEK293T cells; assay: flow cytometry, HEK293T cells transfected with CLEC14A stained with MMRN2-Ig; dashed = transfectant, solid = WT 293T
CD141 [11] = assay: flow cytometry, HEK293T cells transfected with CD141 stained with MMRN2-Ig; dashed = transfectant, solid = WT 293T; histograms nearly overlie
[12] = target: CD93 on cells in Example 20 (transfected HEK293T cells, FIG. 28A; CHO cells stably expressing CD93, FIG. 28B); species not stated; assay: flow cytometry, CHO cells stably expressing CD93 stained with MMRN2-Ig (dashed) or Control (solid) in the presence of IGFBP7-His protein (panel '+IGFBP7'); bar chart of MFI beside it marked ns against 'None'

Chain of IGFBP7-Ig (Example 20, FIG. 28A and 28E; species not stated) (Fc fusion) (Q16270 27-282): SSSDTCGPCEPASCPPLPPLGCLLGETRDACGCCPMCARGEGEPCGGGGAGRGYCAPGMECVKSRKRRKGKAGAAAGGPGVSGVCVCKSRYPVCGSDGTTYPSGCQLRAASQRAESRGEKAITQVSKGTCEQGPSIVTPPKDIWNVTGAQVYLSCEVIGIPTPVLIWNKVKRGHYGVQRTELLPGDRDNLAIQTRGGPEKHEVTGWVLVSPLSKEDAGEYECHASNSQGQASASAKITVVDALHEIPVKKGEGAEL
Chain of CD93 on cells in Example 20 (transfected HEK293T cells, FIG. 28A; CHO cells stably expressing CD93, FIG. 28B); species not stated (Q9NPY3 22-652): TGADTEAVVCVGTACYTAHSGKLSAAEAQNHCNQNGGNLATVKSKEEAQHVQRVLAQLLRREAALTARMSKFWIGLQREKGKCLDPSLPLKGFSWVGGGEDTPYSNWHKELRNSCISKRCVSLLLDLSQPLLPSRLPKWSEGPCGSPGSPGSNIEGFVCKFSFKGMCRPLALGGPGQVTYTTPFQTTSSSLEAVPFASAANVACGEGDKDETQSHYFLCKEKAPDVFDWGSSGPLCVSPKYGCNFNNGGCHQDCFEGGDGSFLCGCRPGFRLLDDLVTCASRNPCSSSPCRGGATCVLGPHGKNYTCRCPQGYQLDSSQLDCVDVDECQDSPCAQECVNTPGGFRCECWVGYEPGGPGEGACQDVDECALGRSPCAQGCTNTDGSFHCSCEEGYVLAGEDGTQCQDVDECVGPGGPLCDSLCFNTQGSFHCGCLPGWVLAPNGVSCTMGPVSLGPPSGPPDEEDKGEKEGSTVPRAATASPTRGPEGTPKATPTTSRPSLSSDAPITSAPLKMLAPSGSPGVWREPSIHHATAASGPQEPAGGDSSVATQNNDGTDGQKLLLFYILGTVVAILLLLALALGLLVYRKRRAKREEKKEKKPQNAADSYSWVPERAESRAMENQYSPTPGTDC

| Substance | number printed over the positive gate of the histogram (percent of cells, unit not given) [1] | number printed over the positive gate of the histogram (percent of cells, unit not given) [2] | number printed over the positive gate of the histogram (percent of cells, unit not given) (CD141 [3]) | number printed over the positive gate of the histogram (percent of cells, unit not given) [4] | number printed over the positive gate of the histogram (percent of cells, unit not given) [5] | number printed over the positive gate of the histogram (percent of cells, unit not given) [6] | number printed over the positive gate of the histogram (percent of cells, unit not given) [7] | number printed over the positive gate of the histogram (percent of cells, unit not given) [8] | number printed over the positive gate of the histogram (percent of cells, unit not given) [9] | number printed over the positive gate of the histogram (percent of cells, unit not given) [10] | number printed over the positive gate of the histogram (percent of cells, unit not given) (CD141 [11]) | number printed over the positive gate of the histogram (percent of cells, unit not given) [12] |
| --- | --- | --- | --- | --- | --- | --- | --- | --- | --- | --- | --- | --- |
| IGFBP7-Ig (Example 20, FIG. 28A and 28E; species not stated) (Fc fusion) | 28.2 | 67 | 2.42 | 3.07 | 5.45 | 67.2 |  |  |  |  |  |  |
| MMRN2-Ig (Fc fusion) |  |  |  |  |  |  | 52.6 | 94.6 | 13.3 | 25.6 | 2.36 | 93.8 |
